Source: patent US6936586B1, “Synthetic IL-10 analogues” (Steeno Research Group A/S, priority 1996, dated 2005)
Peptide text beside a SMILES is read from it.

B1: rhIL-10: recombinant human interleukin 10 obtained from Pepro Tech Inc. (protein)
chain: SPGQGTQSENSCTHFPGNLPNMLRDLRDAFSRVKTFFQMKDQLDNLLLKESLLEDFKGYLGCQALSEMIQFYLEEVMPQAENQDPDIKAHVNSLGENLKTLRLRLRRCHRFLPCENKSKAVEQVKNAFNKLQEKGIYKAMSEFDIFINYIEAYMTMKIRN

Experiments:
human monocytes [1] = test: Viability of cultured cells with IT9302; format: cell-based; details: any concentration of IT9302 between 0.1 and 1000 ng/ml; viability always exceeded 80% after 1 day in culture
human monocytes [2] = test: Class II MHC (HLA-DR) antigen expression on IFN-γ stimulated human monocytes, flow cytometry; format: cell-based; details: 10 ng/ml rhIL-10 before IFN-γ 10 ng/ml, 40 hours; unstimulated 36.8%, IFN-γ alone 58.4%
Protocol: HLA-DR expression on human monocytes. The monocytes were isolated from fresh, heparinized blood by adherence to plastic at 37° C. in RPMI 1640 containing 10% FCS. After incubation, the supernatant was removed, Hank's solution (4° C. with 1% FCS) was added, and the cells were detached by cooling at […] for 15 minutes and gentle banging to the table. Monocytes were stimulated (2×10^6 cells/ml) in RPMI 1640 added 2% FCS, with IFN-γ (10 ng/ml), or rhIL-10 (100, 10, 1 ng/ml) added before IFN-γ, or IT9302 (10, 1, 0.1 ng/ml) added before IFN-γ for 40 hours. The cells were detached from the wells by cooling as before. Fresh, non-fixed cells were used for surface typing by antihuman antibody for HLA-DR. The cells were resuspended in Hank's solution with 1% FCS, 1×10^6 cells/ml and FITC conjugated mouse-anti-human HLA DR, DP, […] antibodies were added (F 0817, DAKO Denmark) for 45 minutes. The cells were washed three times in Hank's solution and a FACS analysis was performed on a Coulter-Epics XL-MCL flow cytometer at a wavelength of 488 nm. Non-specific binding was determined with a non-relevant Fitch conjugated antibody (mouse anti goat DAKO F 479).
The monocytes were purified as described above and stimulated for 40 hours by IFN-γ (10 ng/ml) and/or rhIL-10 and/or IT9302 added 30 minutes before IFN-γ. […]

PBMCs = test: T cell proliferation, PHA stimulated PBMC, 3H-thymidine incorporation; format: cell-based, human; details: 72 hours, 3H-thymidine last 18 hours
Protocol: Proliferation assay. PBMCs (2×10^5) were cultivated in 200 μl of RPMI medium with 10% FCS for 72 hours with PHA 0.5 μl/ml and rhIL-10 (1, 10, 100 ng/ml) or IT9302 (0.1, 1, 10 ng/ml) in triplets. The last 18 hours ^3H-thymidine was added with 0.5 μCi/well (Amersham, Denmark). The cells were harvested on a filter (Glass Microfibre Filters, Whatman, Cat. No. 1822 849) and scintillation fluid (Ultima, Gold MV, Packard) was added. The scintillation counting was made on Tri-Carb model 1600 TR, Packard.
PBMC's were stimulated with PHA as described above and rhIL-10 and IT9302 were added for 72 hours, and the ^3H-thymidine incorporation was measured for the last 18 hours.

human monocytes [3] = test: Determination of apoptosis in monocytes (DNA typing, propidium iodide flow cytometry); format: cell-based; details: with IFN-γ stimulation; non-stimulated 6.6%, IFN-γ alone 4.1%
Protocol: Alternatively cells were fixed in 10% DMSO, 40% RPMI 1640 and 50% sterile FCS, and stored at −80° C. and used for DNA typing.
DNA typing of the stimulated monocytes. The fixed cells were incubated in 70 ethanol for 60 minutes and washed twice in Hank's solution. 1×10^6 cells were resuspended in 250 μl of RNase 1 μg/ml in 1.12% sodium citrate, pH 8.4 (Ribonuclease A, Pharmacia No. 17-0442-01) and incubated at 37° C. for 3 minutes. Thereafter, 250 μl of propidiumiodide (50 μg/ml in Hank's solution) was added, and cells were incubated in the dark for 30 minutes. After this the cells were washed twice in Hank's solution (Jensen et al., (110)). The DNA content was measured by flow cytometry on a Coulter-Epics XL-MCL at a wavelength of 550 nm.
The IFN-γ stimulated monocytes from above were incubated with propidium iodide and the DNA content was measured by flow cytometry. The fraction of cells expressing DNA in G1 or G2 phase of cell proliferation was measured and also the fraction expressing apoptosis.

[4] = system: normal human CD4+ T cells; test: IL-4 production by cultured CD4+ T lymphocytes, ECL-Western blotting; format: cell-based; details: IT9302 10 ng/ml or IL-10 100 ng/ml, 3 days, cytosolic fractions
Protocol: CD4+ T lymphocytes were purified from heparinized normal human blood. Following Lymphoprep™ (Nycomed Pharma, Oslo, Norway) gradient centrifugation, the mononuclear cells were further sorted at 4° C. using Dynabeads (Dynal AS, Norway) coated with monoclonal anti-CD4 antibodies. The beads were detached by adding polyclonal anti-mouse antibody (Dynal AS, Norway). The purity of the positively selected cells were higher than 99% as judged by FACS analysis. […]
Cells or freeze-dried cell culture supernatants were used for IL-4 protein content determination. […] The blots were then incubated with a polyclonal goat anti-human IL-4 antibody (R&D Systems, UK) followed by a horseradish peroxidase-labelled secondary antibody (Cat. no. RPN 2106 ECL, Amersham, UK), and the immunostaining was detected by exposing a film (Kodak X-OMAT-S, USA) for 90 seconds.
Thus, CD4+ T cells, purified as described in “Methods for T cell chemotaxis”, and cultured as described in the section “Determination of IL-4 production by CD4+ T lymphocytes”, were stimulated for 3 days with IT9302 (10 ng/ml) or IL-10 (100 ng/ml). Cytosolic fractions were collected and analyzed for their IL-4 content using Western blotting (FIG. 9) and a goat anti-human IL-4 polyclonal antibody.

Row | Molecule | effect on viability of cells (human monocytes [1]) | MHC II antigen expression in the cell population (human monocytes [2]) [%] | optimum concentration for downregulation of cell proliferation (PBMCs) [ng/mL] | fraction of monocytes expressing apoptosis (human monocytes [3]) [%] | production of IL-4 by cultured normal human CD4+ T cells [4]
1 | CC[C@H](C)[C@H](NC(=O)[C@H](CCCCN)NC(=O)[C@H](CCSC)NC(=O)[C@@H](NC(=O)[C@H](CCSC)NC(=O)[C@H](Cc1ccc(O)cc1)NC(=O)[C@H](C)N)[C@@H](C)O)C(=O)N[C@@H](CCCNC(=N)N)C(=O)N[C@@H](CC(N)=O)C(=O)O [IT9302, NH2-Ala-Tyr-Met-Thr-Met-Lys-Ile-Arg-Asn-COOH] (H-AYMTMKIRN-OH) | did not in this or in the following examples affect viability |  |  |  | 
2 | B1 |  | 25.2 | 100 | 10.3 | induce the production of IL-4
